Measurements: patent publication US20160184454A1, “RAB7L1 INTERACTS WITH LRRK2 TO MODIFY INTRANEURONAL PROTEIN SORTING AND PARKINSON'S DISEASE RISK” (THE TRUSTEES OF COLUMBIA UNIVERSITY IN THE CITY OF NEW YORK, priority 2013, published 2016)

How the values were obtained:
[1] = tested on: Drosophila dopamine neurons; experiment: Surviving dopaminergic neurons in PPM1 and PPL1 clusters of Drosophila CNS mushroom bodies; assay type: in vivo; conditions: co-expression with LRRK2 G2019S
Text: Next, dopamine neuron survival at the dorsomedial posterior protocerebral (PPM1) and dorsolateral posterior protocerebral (PPL1) clusters of Drosophila CNS mushroom bodies was quantified in terms of the loss of expression of a dopamine neuron-specific nuclear localization signal (NLS)-GFP marker protein, using fluorescent confocal microscopy analysis of whole mounted tissue.
Wild-type and mutant G2019S LRRK2 transgenes were expressed specifically in catecholaminergic neurons, including dopamine neurons, using the Gal4-UAS system described (Fischer et al., 1988). […] A UAS-GFP::nuclear localization sequence (NLS) marker was used to visualize nucleii of cells in which trangenes were expressed (stock 4775 (w 1118; P{UAS-GFP.nls}14), Drosophila Stock Center, Bloomington, Ind.). […] Adult Drosophila mushroom bodies were dissected as in (Wu and Luo, 2006) and imaged immediately, without fixation, using a Zeiss LSM510 Meta confocal fluorescent microscope.

[2] = tested on: rat primary cortical neurons; experiment: Neurite length assay in transfected primary cortical neuron cultures; assay type: cell-based; conditions: co-transfection with LRRK2 G2019S (0.5 μg/well); test vector 1 μg/well
Text: As 5 candidate genes are present within the PARK16 locus (SLC45A3, NUCKS, RAB7L1, SLC41A1, and PM20D1), each of the genes were experimentally screened for a functional interaction with LRRK2 (FIG. 2A). A previously-described primary rat neuron in vitro culture model was used, in which transient expression of familial PD-associated LRRK2 G2019S or R1441C mutant alleles leads to a marked reduction in neurite process length (MacLeod et al., 2006). […] RAB7L1 is a small cytosolic GTPase, structurally distinct from RAB7 despite its name (also known as RAB29) (Shimizu et al., 1997). […] But the function of RAB7L1 in CNS neurons remains unknown. Orthologues of RAB7L1 in other organisms, including C. elegans Glo-1 and Drosophila melanogaster Lighloid, have been implicated in trafficking to lysosome-related organelles (Hermann et al., 2005) and in the regulation of neurite process length (Grill et al., 2007), reminiscent of LRRK2 mutant phenotypes (MacLeod et al., 2006). Thus this gene was of particular interest.
Sprague-Dawley rat or mouse PI primary dissociated cortical cultures were prepared and transfected essentially as described (Xia et al., 1996) with the following modifications: cells were plated at high density, approximately 250,000 cells/cm2, in 24-well plates with 500 ul medium/well. Culture medium used for plating cells was Neurobasal-A supplemented with 2% B-27 and 10% FBS. At 1 day after plating, medium was changed to reduced serum (1% FBS+added antimitotic agents: 70 μM uridine and 25 μM 5-fluorodeoxyuridine) and replaced weekly thereafter; for transfections no DMSO was added to the transfection mixture, cells were not subjected to glycerol shock, and a total of 3 μg plasmid DNA was used per well. Cells were fixed in 4% PFA and immunostained with mouse α-RAB7L1 (Santa Cruz, 1:100), and rabbit monoclonal α-LRRK2 (Michal J. Fox Foundation MJFF4, 1:100), then with appropriate fluorescent secondaries (Jackson, 1:1000-2000). Neurite length and neurite puncta (defined as swellings greater than 2 um in diameter) were counted for at least 20 neurons per condition. Mean puncta number per neuron was normalized to total average neurite length versus wild-type LRRK2 transfected cells. Fluorescent microscopy was performed using a Nikon TE 2000-S microscope and a Zeiss LSM510 Meta confocal microscope. Images were analyzed using Image-Pro Plus (Mediacybernetics) software version 5.1.0.20.

B1: CA RAB7L1: constitutively active RAB7L1 (Q67L, deficient in GTPase activity); in b298 the same words denote the fly transgene (protein, UniProt O14966 1-203, looked up, variant Q67L)
Ras-related protein Rab-7L1: MGSRDHLFKVLVVGDAAVGKTSLVQRYSQDSFSKHYKSTVGVDFALKVLQWSDYEIVRLQLWDIAGLERFTSMTRLYYRDASACVIMFDVTNATTFSNSQRWKQDLDSKLTLPNGEPVPCLLLANKCDLSPWAVSRDQIDRFSKENGFTGWTETSVKENKNINEAMRVLIEKMMRNSTEDIMSLSTQGDYINLQTKSSSWSCC
B1 was tested, and the “LRRK2 G2019S dopamine neuron loss phenotype” value [1] was “rescued the LRRK2 G2019S dopamine neuron loss phenotype” and the “LRRK2 mutation-induced neurite length phenotype” value [2] was “significantly suppressed”.
